Assay results as given in the supplement of paper PMC10567573.

B1: DVL3 (parent)
chain: FPELGYSYGGGSASSQHSEGSRSS

Variants of: B1
Experiment: protein stability index of a GFP-peptide fusion (GPS, HEK-293T) (PSI 1-6); higher = more stable
Conditions: c terminus: a fixed tail appended
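Also: lentivirally expressed fusions sorted by FACS into six bins by GFP to DsRed ratio, PSI derived from sequencing read proportions per bin multiplied by bin number.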

First: FPELGYSYGGGSASSQHSEGSHSS [R22H]
Second: FPELGYSYGGGSASSQHSEGSWSS [R22W]
The protein stability index of the first is higher: 3.24 for the first, 2.88 for the second.

First: FPELGYSYGGGSASSQHSEGSFSS [R22F]
Second: FPELGYSYGGGSASSQHSEGSKSS [R22K]
The protein stability index of the first is lower: 2.79 for the first, 3.15 for the second.

Compared with FPELGYSYGGGSASSQHSEGSASS [R22A], FPELGYSYGGGSASSQHSEGSLSS [R22L] is lower in protein stability index: 3.41 for the first, 2.53 for the second.

First: FPELGYSYGGGSASSQHSEGSGSS [R22G]
Second: FPELGYSYGGGSASSQHSEGSTSS [R22T]
The protein stability index of the first is higher: 3.53 for the first, 2.6 for the second.

Going from FPELGYSYGGGSASSQHSEGSNSS [R22N] to FPELGYSYGGGSASSQHSEGSVSS [R22V], the protein stability index falls from 3.56 to 3.18.

First: FPELGYSYGGGSASSQHSEGSISS [R22I]
Second: FPELGYSYGGGSASSQHSEGSQSS [R22Q]
The protein stability index of the first is higher: 3.43 for the first, 2.92 for the second.

First: FPELGYSYGGGSASSQHSEGSDSS [R22D]
Second: FPELGYSYGGGSASSQHSEGSCSS [R22C]
The protein stability index of the first is higher: 3.42 for the first, 3.41 for the second.

Going from FPELGYSYGGGSASSQHSEGSPSS [R22P] to FPELGYSYGGGSASSQHSEGSYSS [R22Y], the protein stability index falls from 3.59 to 3.21.

Going from FPELGYSYGGGSASSQHSEGSESS [R22E] to FPELGYSYGGGSASSQHSEGSSSS [R22S], the protein stability index falls from 3.71 to 3.66.

Going from FPELGYSYGGGSASSQHSEGSMSS [R22M] to FPELGYSYGGGSASSQHSSGSRSS [E19S], the protein stability index falls from 3.4 to 3.16.

First: FPELGYSYGGGSASSQHSHGSRSS [E19H]
Second: FPELGYSYGGGSASSQHSCGSRSS [E19C]
The protein stability index of the first is lower: 2.38 for the first, 2.39 for the second.

First: FPELGYSYGGGSASSQHSVGSRSS [E19V]
Second: FPELGYSYGGGSASSQHSDGSRSS [E19D]
The protein stability index of the first is lower: 2.52 for the first, 3.64 for the second.

First: FPELGYSYGGGSASSQHSYGSRSS [E19Y]
Second: FPELGYSYGGGSASSQHSLGSRSS [E19L]
The protein stability index of the first is higher: 2.41 for the first, 2.06 for the second.

Going from FPELGYSYGGGSASSQHSKGSRSS [E19K] to FPELGYSYGGGSASSQHSTGSRSS [E19T], the protein stability index rises from 2.89 to 3.24.

First: FPELGYSYGGGSASSQHSWGSRSS [E19W]
Second: FPELGYSYGGGSASSQHSFGSRSS [E19F]
The protein stability index of the first is lower: 1.81 for the first, 3.64 for the second.

Compared with FPELGYSYGGGSASSQHSGGSRSS [E19G], FPELGYSYGGGSASSQHSNGSRSS [E19N] is lower in protein stability index: 2.87 for the first, 2.59 for the second.

Going from FPELGYSYGGGSASSQHSIGSRSS [E19I] to FPELGYSYGGGSASSQHSMGSRSS [E19M], the protein stability index rises from 2.94 to 3.12.

First: FPELGYSYGGGSASSQHSPGSRSS [E19P]
Second: FPELGYSYGGGSASSQHSQGSRSS [E19Q]
The protein stability index of the first is higher: 3.15 for the first, 2.66 for the second.

Compared with FPELGYSYGGGSASSQHSAGSRSS [E19A], FPELGYSYGGGSASSQHSRGSRSS [E19R] is lower in protein stability index: 2.99 for the first, 2.85 for the second.

First: FPELGYSYGGGSASSYHSEGSRSS [Q16Y]
Second: FPELGYSYGGGSASSVHSEGSRSS [Q16V]
The protein stability index of the first is lower: 2.69 for the first, 2.7 for the second.

Compared with FPELGYSYGGGSASSTHSEGSRSS [Q16T], FPELGYSYGGGSASSWHSEGSRSS [Q16W] is lower in protein stability index: 3.48 for the first, 2.27 for the second.

First: FPELGYSYGGGSASSQHSERSRSS [G20R]
Second: FPELGYSYGGGSASSQHSENSRSS [G20N]
The protein stability index of the first is lower: 3.15 for the first, 3.43 for the second.

Going from FPELGYSYGGGSASSQHSEASRSS [G20A] to FPELGYSYGGGSASSQHSEHSRSS [G20H], the protein stability index rises from 2.52 to 2.9.

Going from FPELGYSYGGGSASSQHSECSRSS [G20C] to FPELGYSYGGGSASSQHSEYSRSS [G20Y], the protein stability index falls from 2.99 to 2.64.

First: FPELGYSYGGGSASSQHSEKSRSS [G20K]
Second: FPELGYSYGGGSASSQHSETSRSS [G20T]
The protein stability index of the first is lower: 3.06 for the first, 3.42 for the second.

Going from FPELGYSYGGGSASSQHSELSRSS [G20L] to FPELGYSYGGGSASSQHSEPSRSS [G20P], the protein stability index rises from 2.5 to 2.94.

Compared with FPELGYSYGGGSASSQHSEQSRSS [G20Q], FPELGYSYGGGSASSQHSEESRSS [G20E] is higher in protein stability index: 3.27 for the first, 3.52 for the second.

Going from FPELGYSYGGGSASSQHSEMSRSS [G20M] to FPELGYSYGGGSASSQHSEWSRSS [G20W], the protein stability index falls from 2.48 to 2.32.

Going from FPELGYSYGGGSASSQHSEFSRSS [G20F] to FPELGYSYGGGSASSQHSEVSRSS [G20V], the protein stability index rises from 2.63 to 2.75.

Compared with FPELGYSYGGGSASSQHSEISRSS [G20I], FPELGYSYGGGSASSQHSESSRSS [G20S] is higher in protein stability index: 2.73 for the first, 3.18 for the second.

Compared with FPELGYSYGGGSASSQHSEDSRSS [G20D], FPELGYSYGGGSASSQHAEGSRSS [S18A] is lower in protein stability index: 3.7 for the first, 3.19 for the second.

First: FPELGYSYGGGSASSQHGEGSRSS [S18G]
Second: FPELGYSYGGGSASSQHMEGSRSS [S18M]
The protein stability index of the first is higher: 3.12 for the first, 2.76 for the second.

Compared with FPELGYSYGGGSASSQHEEGSRSS [S18E], FPELGYSYGGGSASSQHCEGSRSS [S18C] is lower in protein stability index: 3.5 for the first, 2.9 for the second.

Going from FPELGYSYGGGSASSQHDEGSRSS [S18D] to FPELGYSYGGGSASSQHLEGSRSS [S18L], the protein stability index falls from 3.7 to 2.86.

Going from FPELGYSYGGGSASSQHNEGSRSS [S18N] to FPELGYSYGGGSASSQHWEGSRSS [S18W], the protein stability index falls from 2.89 to 2.2.

First: FPELGYSYGGGSASSQHKEGSRSS [S18K]
Second: FPELGYSYGGGSASSQHFEGSRSS [S18F]
The protein stability index of the first is higher: 2.98 for the first, 2.77 for the second.

Compared with FPELGYSYGGGSASSQHIEGSRSS [S18I], FPELGYSYGGGSASSQHPEGSRSS [S18P] is higher in protein stability index: 2.73 for the first, 3.24 for the second.

First: FPELGYSYGGGSASSQHREGSRSS [S18R]
Second: FPELGYSYGGGSASSQHYEGSRSS [S18Y]
The protein stability index of the first is higher: 2.97 for the first, 2.9 for the second.

Compared with FPELGYSYGGGSASSQHVEGSRSS [S18V], FPELGYSYGGGSASSQHTEGSRSS [S18T] is lower in protein stability index: 3.36 for the first, 3.3 for the second.

Compared with FPELGYSYGGGSASSQHQEGSRSS [S18Q], FPELGYSYGGGSASSQHHEGSRSS [S18H] is lower in protein stability index: 3.15 for the first, 2.95 for the second.

Compared with FPELGYSYGGGSASSQHSEGSRSE [S24E], FPELGYSYGGGSASSQHSEGSRSL [S24L] is lower in protein stability index: 4.02 for the first, 2.94 for the second.

Compared with FPELGYSYGGGSASSQHSEGSRSW [S24W], FPELGYSYGGGSASSQHSEGSRSC [S24C] is higher in protein stability index: 1.95 for the first, 2.99 for the second.

Going from FPELGYSYGGGSASSQHSEGSRSN [S24N] to FPELGYSYGGGSASSQHSEGSRST [S24T], the protein stability index falls from 3.56 to 2.92.

Going from FPELGYSYGGGSASSQHSEGSRSF [S24F] to FPELGYSYGGGSASSQHSEGSRSG [S24G], the protein stability index rises from 2.57 to 3.01.

First: FPELGYSYGGGSASSQHSEGSRSM [S24M]
Second: FPELGYSYGGGSASSQHSEGSRSI [S24I]
The protein stability index of the first is higher: 2.97 for the first, 2.37 for the second.

First: FPELGYSYGGGSASSQHSEGSRSH [S24H]
Second: FPELGYSYGGGSASSQHSEGSRSY [S24Y]
The protein stability index of the first is higher: 3 for the first, 2.58 for the second.

Going from FPELGYSYGGGSASSQHSEGSRSR [S24R] to FPELGYSYGGGSASSQHSEGSRSP [S24P], the protein stability index rises from 3.69 to 3.93.
